Results published in the nanobody polyreactivity screen of Harvey et al. (2022).

Assay: yeast display, Sf9 membrane polyspecificity reagent, FACS + sequencing; frameworks hold sequencing errors
Summary of the method: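 Galactose induction of a Saccharomyces cerevisiae BJ5465 synthetic nanobody display library ran 36–48 hours. The cells were then stained for 1 hour at 4 °C with 10% biotinylated, detergent-solubilized Sf9 membrane reagent, pulled down on streptavidin microbeads and FACS-sorted into low and high (top ~1%) gates on expression and reagent-binding fluorescence. Labels for polyreactivity follow the gate of origin.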

| Sequence | polyreactivity (PSR sort gate) |
| --- | --- |
| QVQLVESGGGLVQAGGSLRLSCAASGIIFSSYAMGWYRQAPGKERELVAAISTSGGRTYYADSVKGRFTISRDNAKNTVYLQMNSLKPKDTAVYYCAARYGYWGQGTQVTVSS | high polyreactivity |
| QVHLVESGGGLVQAGGSLRLSCAASGFIFTYYTMGWYRQAPGKERELVAAISRSGARTYYADSVKGRFTISRDNAKNTVYLQMNSLKPEDTAVYYCNTDISYGYYPVGYDYWGQGTQVTVSS | high polyreactivity |
| QVQLVESGGGLVQAGGSLRLSCAASGRIFVKNAMGWYRQAPGKERELVAAISRGGSTYYADSEKGRFTISRDNAKITVYLQMNSLKPEDTAVYNCAPGGQGGDFGDDYWGQGTQVTVSS | high polyreactivity |
| QVQLVESGGGLVQAGGSLRLSCAASGGIFVFYAMGWYRQAPGKERELVAAITYRGGSTSYADSVKRRFTISRDNAKNTVYLQMNSLKPEDTAVYYCNARRRTWYGFYYWGQGTQVTVSS | high polyreactivity |
| QVQLVESGGGLVQAGGSLRLSCAASGFTLAYYAMGWYRQAPGKERELVAAITADTGTTYYADSVKGRFTISRDNAKNTVYLQMNSLKPEDTAVYYCATRDVFYEDDYWGQGTQVTVSS | high polyreactivity |
| QVQLVESGGGLVQAGGSLRLSCAASGSIFYYYAMGWYRQAPGKERELVAAITVSGGSTYYADSVKGRFTISRDNAKNTVYLQMNSLKPEDTAVYYCAAVSLFRDSQFDYWGQGTQVTVSS | low polyreactivity |
| QVQLVESGGGLVQAGGSLRLSCAASGYIFYGYDMGWYRQAQGKERDLVAGITYSGGGGTHYADSVKGRFTISRDNAKNTVYLQMNSLKPEDTAVYYCAKADPQLNRNYYSYGMDYWGQGTQVTVSS | low polyreactivity |
| QVQLVESGGGLVQAGGSLRLSCAASGSIFYDAMGWYRQAPGKERELVAAITSSGGDTSYADSVKGRCTISRDNAKNTVYLQMNSLKPEDTAGYYCNADTYYVEYTAFDYWGQGTQVTVSS | low polyreactivity |
| QVQLVESGGGLVQAGGSLRLSCAASGRTFPGNAMGWYRQAPGKERELVAAISWSGTRTYYADSVKGRFTISRDNAKHTVYLQMNSLKPEDTAVYYCNVVVKGAWDYYPYDYWGQGTQVTVSS | high polyreactivity |
| QVQLVESGGGLVQAGGSLRLSCAASGFILKDNAMGWYRQAPGKERELVAAISSGGGTYYADSVKGRFTISRDNAKNTVSLKMNSLKPEDTAVYYCNADDLYSLNDSSEDYWGQGTQVTVSS | high polyreactivity |
| QVQLVESGGGLVQAGGSLRLSCAASGYIFWYNAMGWYRQAPGKERELVAAISRSGGRTYYADSVKGRCTISRDNAKNTVYLQMNSLKPDDTAVYYCAAGSSHHYVYEGGYWGQGTQVTVSS | low polyreactivity |
| QVQLVESGGGLVQAGGSLRLSCAASGRIFRYYAMGWYRQAPGKERELVAAIDSVGSTYYADSVKGRFTISRDNAKNTVYLQMNSLKPEDTAVYYCNARVYTFPTRYDYWGQGTQVTVSS | high polyreactivity |
| QVQLVESGGGLVQAGGSLRLSCAASGRTLGWYAMGWYRQAPGKERELVATISITGGSTYYADSVKGRFTISRDNAKNTVYLQMNSLKPEDTAVYYCAARHGSRRRYYYWGQGTQVTVSS | high polyreactivity |
| QVQLVESGGGLVQAGGSLRLSCAASGRTFKWYAMGLYRQAPGKEREFVAGISRGAGRTYYADSVKGRFTISRDNAKNTVYLQMNSLKPEDTAVYYCAAVPSYHSTSPFYYWGQGTQVTVSS | high polyreactivity |
| QVQLVESGGGLDHARGSLRLICPASGRTFAPYAMGWYRQAPGKERELVARITWSGTDTYYADSVKGRFTISRDNAKNTVYLQMNCLKPDDTAVYYCAADARYSRRYYYWGQGTQVTVSS | low polyreactivity |
| QVQLLESGGGLVQPGGSLRLSCAASGSIFGRNVMGWYRQAPGKERELVAAISSSGGRTYYADSVKGRFTISRDNAKNNVYLQMNCLKPEDTAVYYCADRYGIKYYYWGQGTQVTVSS | high polyreactivity |
| QVQLVESGGGLVQAGGSLRLSCAASGSTFQWYTMGWYRQAPGKERELVAAITWSGASTYYADSVKGRFTISRDNAKNTVYLQMNSLKPDYTAVYYCAADWRRGSGFYYWGQGTQVTVSS | high polyreactivity |
| QVQIVDSGGGLVQAGGSLRLSCAASGRIIPANAMGWYRQAPGKERELVAAIDYDGGSTYYADSVKGRFTISRDNAKNTVYLQMNSLNPEVTAVYYCAADFYDYEGSYYDYYWGQGTQVTVSS | high polyreactivity |
| QVQLVESGGGLVQAGGSLRLSCAASGFAFSYYAMGWYIPAPGKEREFVASIDWSGGSTYYADSVKGRFTISRDNAKNTVYLQMNSLKPEDTAVYYCAAELDYFPGYDYWGQGTQVTVSS | low polyreactivity |
| QVQLVESGGGLVQAGGSHRLSCAASGRLFSWNAMGWYRQAPGTERELVAAITNGGGTYYADSVKGRFTISRDNAKNTVYLQMNSLKPEDTAVYYCNAYRRKLWYPTGLYWGQGTQVTVSS | high polyreactivity |
| QVQLVESGGGLVQAGGSLRLSCAASGITFKYYAMGWYRQAPGKERELVAAITRGGSTYYADSVKRRFTISRDNAKTTVYLQMNSLKPVDTAVYYCNKARTYELYWGQGTQVTVSS | high polyreactivity |
| QVQLVESGGGLVQAGGSLTLICAASGRTLYLNAMGWYRQAPRKERELVAISSGGSTYYADSVKGRFTISRDNAKNTVYLQMNSLKPEVTAVYYCNADEHYHFCYVFWYAYDYWGQGTQVTVSS | low polyreactivity |

| Sequence | polyreactivity (PSR sort gate) |
| --- | --- |
| QVQRVESGGGLVQAGGSLRLSCAASGSTFYTNAMGWYRQAPGKERELVASITGGGSTYYADSVKGRFTISRDNAKNTVYLQMNSLKPEDTAVYYCAADNFGGGWEFDSWGQGTQVTVSS | low polyreactivity |
| PVQLVESGGGLVQAGGSLRISCAASGRSFYVYAMGWYRQAPGKEREFVARITSNGGSPTYADSVKGRFTISRDKAKNTVYLQMNSLKPEDTAVYYCNADDGIHPNASPSFPQYDYWGPGTQVTVSS | low polyreactivity |
| QVQLVESGGGLVQAGGSLRLSCAASGSIFPTYAMGWYRQAPGKERELVAAITGSGGSTYYADSVKGRFTISRDNAKNTVYLQMNSLKPEDTAVYYCAKDVYWYGVWYDYWGQGTQLTVSS | high polyreactivity |
| QVQLVESGGGLVQAGGSLRLSCAASGSTFTLYAMGWYRQAPGKERELVATITGSGGSTNYADSVKGRFTISRDNAKNTVYLQMNSLKPEDTAVYYCAADYAVYSFTDFNYWGQGTQVTVSS | high polyreactivity |
| QVQLVESGGGLVQAGGSLRLSCAASGSIFFPNPLGWYRQAPGKERELVDAISWSGDSSYADSVKGRFTISRDNAKNTVYLQMNSLKPEDTAVYYCAAVYLWWSYEFDYWGQGTQVTVSS | low polyreactivity |
| QVQLVESGGGLVQAGGSLRLSCAASGRTFVWNVMGWYRQAPGKEREFVAAISGGSTYYADSVKGRFTISRDNAMNTVYLEMNSLKPEDTAVYYCADASKLHPRYEYWGQGTQVTVSS | low polyreactivity |
| QDQLVESGGGLVQAGGSLRLSCAASGGIFPDNAMGWSRKAPGKERELVATISWSGGSTYADSVKWRFTISRDNAKNTVYLQMNRLKPEDTAVYYCAAGSAYLWGQGTQVSVSS | low polyreactivity |
| QVQLVESGGGLVQAGGSLRLSCAASGSTFVAYPMGWYRQAPGKERELVATISSGGNTKYADSVKGRFTISRDNAKNTVYLQMNSVKPEDTAVYYCNAGRYRYRYRSYPYDYWGQGTQVTVSS | high polyreactivity |
| QVQLVESGGGLVQAGGSLRLSCAASGRTFKRYAMGWYRQAPGKERELVAAITASGGNTYYADSVKGRFTISRDNAKNTVYLQMNSLKPEDTAVYYCNAVTSVQARPRNYYYWGQGTQVTVSS | high polyreactivity |
| QVQLVESGGGLVQAGGSLRLSCAAYGYTFRGYAMGRYRQAPGKEREFVAAINWSDGSTYYADSVKGRFTISRDNAKNTVYLQMNSLKPEDTAVYYCNADQYYRFPDNYLGQGTQVTVSS | low polyreactivity |
| QVQLVESGGGLVQAGGSLRLSCAASGSTFNRYAMGWYRQAPGKERELVAAISLSGGSTYYADSVKGRFTISRDNAKNTVYLQMNSLKPEDTAVYYCAADIFYYSSSYGYWGQGTQVTVSS | low polyreactivity |
| QVQLVESGGGLVQAGGSLRLSCAASGFTLFGYAMGWYRQAPGKERELVAAITSGDGRTYYADSVKGRFTISRDNAKNTVYLQMNSLKPEDTAVYYCAATRYSSYYYVRHDHWGQGTQVTVSS | low polyreactivity |
| QVQLVESGGCLVQAGGSLRLSCAASGLTFGSYGMGWYRQAPGKERELVAAITATGGSTYYADSVKGRFTISRDNAKNTVYLQMNSLKPEDTAVYYCAATRRSKVWLYGYWGQGTQVTVSS | high polyreactivity |
| QVQLVDSGGGLVQAGGSLRLTCAASGSTYYRNAMGWYRQAPGKETEFVAAISFRGGGTYADSVKGRFTISRDNAKNTVYLQMNSLKPDDTAVYYCDSDHLSYRRRYEYWGQGTKVTVSS | low polyreactivity |
| QVHLVESGGGLVQAGGSHRLSCAASGRIFRGYAMGWYIQAPGKERELVAAISGRGGRTYYADSVKGRFTISRDNAKNTVYLQMNSLKPEDTAVYYCNARRGRRGYYGNGDYWGQGTQVTVSS | high polyreactivity |
| QVHLVESGGRLVQAGGSLRLRCAASGRTFIANVMGLYRQAPRKETELVAAISTRGGSTYYADSVKGRFTISRDYAKYTVYLHMNRLKPEDTAVDYCAAYYPAQRGFNSWGQGTQVTVSS | high polyreactivity |
| QVQLVESGGGLFQAGGSLRLSCAATGRIFYSNAMGWYRQAPGKERELVAAINSRGGRTYYADSLKGRFTISRDNAKNTVYLQMNSLKPEDTAVYYCAAPTGPKGYYSDRGDSWGQGTQVTVSS | high polyreactivity |
| QVQLVESGGGLVQAGGSLRLSCADSGRTFKYYAMGWYRQAPGKARELVAAIRSTGGSKYYADSVKGRFTISRDNAKNTVYLQMNSLKPEDTAVYYCNARRYPRYVFSRYDYWGQGTQVTVSS | high polyreactivity |
| QVQIVESGGGLVQAGGSLRLICAASGSIFFYYAMGWYRQAPGKEWELVAAITFTGGSTYYADSVKGSFTISRDNAKNTVYLQMTSLKPEDTAVYYCAADWYYGFEYEYRGQGTQVTVSS | high polyreactivity |
| QVHLVESGGGLVQAGGSLRLSCAASGSIISRYTMGWYRQAPGKERELVAAITSSGGSTYYADSVKGRFTISRDNAKNTVYLQMNSLKPEDTAVYYCNKVNRYGKFDYWGQGTQVTVSS | high polyreactivity |
| QVQLVESGGCLVQAGGSLRLSCAASGSTFVHNAMGWYRQAPGKERELVAAISESGGGTYYADSVKGRFTISRDNAKNTVYLQMNSLKPEDTAVYYCAAPPAGENWRDGGGYWGQGTQVTVSS | low polyreactivity |
